Source: paper PMC7059301

Target: Aspergillus niger α-xylosidase AxlA (Aspergillus niger)
Assay: crystal structure

Substance “Aspergillus niger α-xylosidase AxlA (enzyme)” has a stoichiometry N of 4.
